Read-outs that look alike come from different tables or passages of the source. Starred links: 1 amine or outer side, 2 acyl side, 3 side chain; linkers in the order of their positions; H or OH if unused. Positions of bridges follow the written chain, without caps; N, C: chain ends. Non-standard residues stand in square brackets, D forms with d. Residues, ends and D or L forms follow the SMILES beside them. Chains are numbered I, II in the order given. *: point of attachment. X1 = O=C(CCP(=O)(O)CN1CCN(CP(=O)(O)CCC(=O)NCCCn2cc(CCC(=O)[*:2])nn2)CCN(CP(=O)(O)CCC(=O)NCCCn2cc(CCC(=O)[*:3])nn2)CC1)NCCCn1cc(CCC(=O)[*:1])nn1; X2 = O=C(O)CCP(=O)(O)CN1CCN(CP(=O)(O)CCC(=O)O)CCN(CP(=O)(O)CCC(=O)NCCCn2cc(CCC(=O)*)nn2)CC1; NMeK = CN[C@@H](CCCCN)C(=O)O; Pent4ynoyl = C#CCCC(=O)*
Legend:
αvβ8-integrin = αvβ8-integrin (Homo sapiens, UniProt P06756+P26012); assay: solid-phase binding assay, αvβ8-integrin affinity
Description: (§1) Synthesis and characterization of Triveoctin is described in the Additional file 1. The integrin affinities were determined by a solid-phase binding assay, applying a previously described protocol. β8 immunohistochemistry stainings were done as described. All animal studies have been performed in accordance with general animal welfare regulations in Germany and the institutional guidelines for the care and use of animals. ^68Ga radiolabeling, cultivation of MeWo cells and generation of respective subcutaneous xenografts, determination of n-octanol/phosphate-buffered saline (PBS) distribution coefficients (log D) and ex-vivo biodistribution studies, and µPET imaging were done as described previously in detail (a brief summary is provided in the following).

[1] = system: MeWo (human melanoma) xenografted SCID mice; design: method as in PMID 23283986; conditions: cited from earlier work
in vivo = assay: in vivo; design: species or system mice; conditions: female, CB17 SCID, mouse; for tissue uptake at 1 h: 43 pmol
Description: as §1
(§2) MeWo cells (ATCC®, HTB-65™) were grown at 37 °C under 5% CO2 atmosphere in DMEM/HAM (Biochrom, Berlin, Germany) with 10% fetal calf serum (Thermo Fisher). Approx. 10^7 cells were subcutaneously injected with Matrigel® (Corning, #354262) into the right shoulder of 6–8-week-old female CB17 severe combined immunodeficiency (SCID) mice, which were used about 2–3 weeks later for PET and biodistribution.
(§3) Fig. 3 Biodistribution of ^68Ga-Triveoctin, 60 min p.i. (43 ± 13 pmol, n = 6; blockade with 60 nmol Triveoctin injected 5 min prior to the radiopharmaceutical, n = 4) in MeWo-xenografted SCID mice, uptakes expressed as % injected dose per gram tissue; mean ± SD. Data for ^68Ga-TRAP-AvB8 (control: 77 ± 24 pmol, n = 11; blockade: n = 3) were taken from the literature and are shown for comparison. Data in numerical form are given in the Additional file 1: Table S1

[2] = system: MeWo (human melanoma) xenografted SCID mice; assay: in vivo; conditions: mouse
Description: as §1, §2, §3

clinical = conditions: human, in vivo
Description: Using a fully automated synthesis module, the eluate of a ^68Ge/^68Ga generator (by Eckert & Ziegler, Berlin, Germany; 0.1 M HCl, approx. 500 MBq ^68Ga) was directly eluted into the reaction vial containing Triveoctin (35 µg) and adjusted to pH 4.5 with sodium acetate. After heating for 4 min at 95 °C, the mixture was passed over a solid-phase extraction cartridge (Waters Sep-Pak®light tC-18), which was purged with water (10 mL). Thereafter, ^68Ga-Triveoctin was eluted with ethanol/water mixture (1:1 by volume, 1 mL), followed by isotonic saline (9 mL). The formulation containing approx. 5% ethanol was passed through a 0.22-µm filter into a sterile injection vial and dispensed for injection. Quality control was done by radio-HPLC using a Shimadzu system equipped with a column Chromolith® Performance RP18e (Phenomenex, Aschaffenburg, Germany), gradient 0–100% acetonitrile in water within 15 min, flow rate 1.4 mL/min, tR = 8.53 min, and met the in-house specifications for ^68Ga-labeled compounds (> 95%).
(§4) Application of ^68Ga-Triveoctin was done according to §13/2b of the German Drug Act (Arzneimittelgesetz). A human subject received a single intravenous injection of ^68Ga-Triveoctin (173 MBq, approx. 25 µg; for radiolabeling and QC, see Additional file 1). […] 25 min p.i., the patient underwent a list-mode PET/CT imaging protocol on a Biograph Vision 600 (Siemens Healthineers, Knoxville, USA). A standard low-dose CT was acquired from the whole body (X-ray tube current 10 mA, tube voltage 100 kV, spiral pitch factor 1.5, 3.0 mm slice thickness) and used for absolute scatter correction of the subsequent PET scan. The emission PET scan was acquired over 19 min using continuous bed motion with a speed of 2.2 mm s^–1 for the legs and 1.4 mm s^–1 for the remaining body. The PET scan was repeated 45 min p.i. without another CT scan. Another PET/CT imaging sequence was acquired 90 min p.i. as the subject had to leave the scanner for voiding. All scans were obtained during normal breathing. PET images were reconstructed using the TRueX algorithm with 4 iterations, 5 subsets, time-of-flight (TOF) application and without filtering. […] The dosimetry values were calculated using OLINDA V1.1 [24] on the basis of the human PET data.

[3] = design: species or system human; conditions: in vivo
Description: as §4
Assuming that an activity of 100 MBq ^68Ga-Triveoctin is sufficient for a PET scan at 30–60 min p.i., up to 6 investigations could be performed without exceeding the 20 mSv limit.

[4] = non-radioactive 69/71Ga(III) complexes where applicable, read-out: αvβ8-Integrin affinity IC50 (95% confidence interval)
[5] = female, CB17 SCID, 43 pmol, 1 h

αvβ8-integrin, sequence (P06756 31-992 limits assumed): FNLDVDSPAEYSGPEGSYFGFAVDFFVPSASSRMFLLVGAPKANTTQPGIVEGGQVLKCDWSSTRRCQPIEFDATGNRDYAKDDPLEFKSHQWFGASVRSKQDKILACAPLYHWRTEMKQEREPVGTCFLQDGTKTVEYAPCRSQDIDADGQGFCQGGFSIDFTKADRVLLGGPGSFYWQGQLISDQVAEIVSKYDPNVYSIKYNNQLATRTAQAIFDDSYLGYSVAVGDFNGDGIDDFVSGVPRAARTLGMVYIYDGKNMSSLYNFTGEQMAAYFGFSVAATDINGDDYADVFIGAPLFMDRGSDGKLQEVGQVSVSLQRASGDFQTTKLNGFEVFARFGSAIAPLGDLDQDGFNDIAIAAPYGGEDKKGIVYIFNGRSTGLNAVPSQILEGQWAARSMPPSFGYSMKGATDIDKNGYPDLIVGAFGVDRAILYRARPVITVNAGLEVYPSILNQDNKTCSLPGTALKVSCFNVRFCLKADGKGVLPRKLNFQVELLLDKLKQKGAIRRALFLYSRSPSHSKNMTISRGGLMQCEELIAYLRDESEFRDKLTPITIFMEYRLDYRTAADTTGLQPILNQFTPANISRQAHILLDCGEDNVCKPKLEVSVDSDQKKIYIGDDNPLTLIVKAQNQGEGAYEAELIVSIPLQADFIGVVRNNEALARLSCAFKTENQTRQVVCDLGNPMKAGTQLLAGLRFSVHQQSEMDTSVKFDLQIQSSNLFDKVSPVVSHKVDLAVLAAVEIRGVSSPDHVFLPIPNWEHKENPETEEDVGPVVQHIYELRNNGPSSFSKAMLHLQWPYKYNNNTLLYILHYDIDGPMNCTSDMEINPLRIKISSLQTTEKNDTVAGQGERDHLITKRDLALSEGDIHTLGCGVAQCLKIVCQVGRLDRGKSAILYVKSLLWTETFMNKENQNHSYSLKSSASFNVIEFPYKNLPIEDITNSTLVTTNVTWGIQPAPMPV
αvβ8-integrin, sequence (P26012 43-684 limits assumed): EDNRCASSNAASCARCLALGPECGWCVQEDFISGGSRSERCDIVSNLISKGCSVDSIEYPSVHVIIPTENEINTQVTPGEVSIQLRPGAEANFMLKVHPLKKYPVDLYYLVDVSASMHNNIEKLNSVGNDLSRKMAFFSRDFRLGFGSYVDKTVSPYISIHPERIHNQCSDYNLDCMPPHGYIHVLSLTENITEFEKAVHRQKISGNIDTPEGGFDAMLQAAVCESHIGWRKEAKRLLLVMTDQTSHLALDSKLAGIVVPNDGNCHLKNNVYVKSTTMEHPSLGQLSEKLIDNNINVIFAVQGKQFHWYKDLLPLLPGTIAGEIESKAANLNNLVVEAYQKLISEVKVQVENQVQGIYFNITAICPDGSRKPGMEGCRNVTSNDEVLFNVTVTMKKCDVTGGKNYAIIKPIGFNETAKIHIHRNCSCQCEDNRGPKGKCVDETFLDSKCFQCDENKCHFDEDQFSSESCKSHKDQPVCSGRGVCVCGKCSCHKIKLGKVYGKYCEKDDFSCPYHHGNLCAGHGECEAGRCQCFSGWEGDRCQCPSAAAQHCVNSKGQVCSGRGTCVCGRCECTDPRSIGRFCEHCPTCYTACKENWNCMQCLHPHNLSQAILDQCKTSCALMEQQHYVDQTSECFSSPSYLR

C#CCCC(=O)NCCCC[C@H]1C(=O)NCC(=O)N[C@@H](CC(C)C)C(=O)N[C@@H](CCCNC(=N)N)C(=O)NCC(=O)N[C@@H](CC(=O)O)C(=O)N[C@@H](CC(C)C)C(=O)N2CCC[C@@H]2C(=O)N1C [AvB8-pentynoic amide, cyclo(GLRGDLp(NMe)K(pent-4-ynoic amide))] (cyclo(GLRGDL[dP][NMeK](Pent4ynoyl)))
IC50 (αvβ8-integrin; [4]): 17 nM

CC(C)C[C@@H]1NC(=O)CNC(=O)[C@H](CCCCNC(=O)CCc2cn(CCCNC(=O)CCP(=O)(O)CN3CCN(CP(=O)(O)CCC(=O)O)CCN(CP(=O)(O)CCC(=O)O)CC3)nn2)N(C)C(=O)[C@H]2CCCN2C(=O)[C@H](CC(C)C)NC(=O)[C@H](CC(=O)O)NC(=O)CNC(=O)[C@H](CCCNC(=N)N)NC1=O [^68Ga-TRAP-AvB8, metal not drawn] (cyclo(GLRGDL[dP][NMeK](X2)))
IC50 (αvβ8-integrin): 38 nM
kidney uptake ([1]; 60 min p.i., average): 3.6 %IA/g
tumor uptake upon blockade ([1]; blockade n = 3): 0.25 %IA/g
tumor uptake ([1]; control n = 11): 1.0 %IA/g

CC(C)C[C@@H]1NC(=O)CNC(=O)[C@H](CCCCNC(=O)CCc2cn(CCCNC(=O)CCP(=O)(O)CN3CCN(CP(=O)(O)CCC(=O)NCCCn4cc(CCC(=O)NCCCC[C@H]5C(=O)NCC(=O)N[C@@H](CC(C)C)C(=O)N[C@@H](CCCNC(=N)N)C(=O)NCC(=O)N[C@@H](CC(=O)O)C(=O)N[C@@H](CC(C)C)C(=O)N6CCC[C@@H]6C(=O)N5C)nn4)CCN(CP(=O)(O)CCC(=O)NCCCn4cc(CCC(=O)NCCCC[C@H]5C(=O)NCC(=O)N[C@@H](CC(C)C)C(=O)N[C@@H](CCCNC(=N)N)C(=O)NCC(=O)N[C@@H](CC(=O)O)C(=O)N[C@@H](CC(C)C)C(=O)N6CCC[C@@H]6C(=O)N5C)nn4)CC3)nn2)N(C)C(=O)[C@H]2CCCN2C(=O)[C@H](CC(C)C)NC(=O)[C@H](CC(=O)O)NC(=O)CNC(=O)[C@H](CCCNC(=N)N)NC1=O [^68Ga-Triveoctin, metal not drawn] (I: cyclo(RGDL[dP][NMeK]GL) / II: cyclo(RGDL[dP][NMeK]GL) / III: cyclo(RGDL[dP][NMeK]GL); linker I:6-II:6-III:6 via X1)
IC50 (αvβ8-integrin; [4]): 5.7 nM
tissue uptake at 1 h (in vivo; Adrenals uptake): 0.39 ± 0.23 %ID/g
tissue uptake at 1 h (in vivo; Blood uptake): 0.28 ± 0.06 %ID/g
tissue uptake at 1 h (in vivo; Eye uptake): 1.95 ± 0.44 %ID/g
tissue uptake at 1 h (in vivo; Heart (myocard) uptake): 0.16 ± 0.04 %ID/g
tissue uptake at 1 h (in vivo; Kidneys uptake): 35.3 ± 6.3 %ID/g
tissue uptake at 1 h (in vivo; Large intestine (empty) uptake): 0.17 ± 0.03 %ID/g
tissue uptake at 1 h (in vivo; Liver uptake): 0.28 ± 0.06 %ID/g
tissue uptake at 1 h (in vivo; Lung uptake): 0.68 ± 0.19 %ID/g
tissue uptake at 1 h (in vivo; Muscle uptake): 0.07 ± 0.01 %ID/g
tissue uptake at 1 h (in vivo; Pancreas uptake): 0.12 ± 0.02 %ID/g
tissue uptake at 1 h (in vivo; Small intestine (empty) uptake): 0.18 ± 0.09 %ID/g
tissue uptake at 1 h (in vivo; Spleen uptake): 0.23 ± 0.03 %ID/g
tissue uptake at 1 h (in vivo; Stomach (empty) uptake): 0.22 ± 0.07 %ID/g
tissue uptake at 1 h (in vivo; Tumor MeWo uptake): 1.86 ± 0.31 %ID/g
tissue to tissue ratio at 1 h (in vivo; total radioactivity, kidney-to-blood ratio): 126
tissue to tissue ratio at 1 h (in vivo; total radioactivity, kidney-to-muscle ratio): 505
tissue to tissue ratio at 1 h (in vivo; tumor/blood ratio): 6.7 ± 0.7
tissue to tissue ratio at 1 h (in vivo; tumor/heart (myocard) ratio): 11.7 ± 1.7
tissue to tissue ratio at 1 h (in vivo; tumor/kidneys ratio): 0.1
tissue to tissue ratio at 1 h (in vivo; tumor/liver ratio): 6.8 ± 1.4
tissue to tissue ratio at 1 h (in vivo; tumor/lung ratio): 2.8 ± 0.7
tissue to tissue ratio at 1 h (in vivo; tumor/muscle ratio): 29 ± 6
tissue to tissue ratio at 1 h (in vivo; tumor/pancreas ratio): 15.7 ± 3.5
tissue to tissue ratio at 1 h (in vivo; tumor/spleen ratio): 7.9 ± 1.5
tissue to tissue ratio at 1 h (in vivo; tumor/stomach (empty) ratio): 8.8 ± 2.2
Kidneys uptake [2, 5]: 35 %IA/g
Tumor MeWo uptake [2, 5]: 1.9 %IA/g
tumor/adrenals ratio [2]: 5.7 ± 2.3
tumor/blood ratio [2]: 6.7
tumor/eye ratio [2]: 1.0 ± 0.2
tumor/large intestine (empty) ratio [2]: 11.0 ± 1.6
tumor/liver ratio [2]: 6.8
tumor/muscle ratio [2]: 29
tumor/small intestine (empty) ratio [2]: 11.6 ± 3.9
half-life (clinical): 1.8 h
kidney-to-blood ratio (clinical): approx. 15
kidney-to-muscle ratio (clinical): ~30
SUV at 1.5 h (clinical; iv, 173 MBq, total radioactivity): 6.1 SUV
tissue to tissue ratio at 1.5 h (clinical; iv, 173 MBq, total radioactivity, kidney-to-blood ratio): 15
tissue to tissue ratio at 1.5 h (clinical; iv, 173 MBq, total radioactivity, kidney-to-blood ratio, times lower in human than in mice): 8
tissue to tissue ratio at 1.5 h (clinical; iv, 173 MBq, total radioactivity, kidney-to-muscle ratio): 30
tissue to tissue ratio at 1.5 h (clinical; iv, 173 MBq, total radioactivity, kidney-to-muscle ratio, times lower in human than in mice): 16
Dose estimate, Adrenals [3]: 2.69E−02 mGy/MBq
Dose estimate, Brain [3]: 5.23E−03 mGy/MBq
Dose estimate, Breasts [3]: 5.46E−03 mGy/MBq
Dose estimate, Gallbladder wall [3]: 1.00E−02 mGy/MBq
Dose estimate, Heart wall [3]: 1.52E−02 mGy/MBq
Dose estimate, Kidneys [3]: 2.60E−01 mGy/MBq
Dose estimate, LLI wall [3]: 2.08E−02 mGy/MBq
Dose estimate, Liver [3]: 2.43E−02 mGy/MBq
Dose estimate, Lungs [3]: 7.83E−03 mGy/MBq
Dose estimate, Muscle [3]: 7.23E−03 mGy/MBq
Dose estimate, Osteogenic cells [3]: 8.89E−03 mGy/MBq
Dose estimate, Ovaries [3]: 1.13E−02 mGy/MBq
Dose estimate, Pancreas [3]: 2.01E−02 mGy/MBq
Dose estimate, Red marrow [3]: 6.48E−03 mGy/MBq
Dose estimate, Skin [3]: 5.60E−03 mGy/MBq
Dose estimate, Small intestine [3]: 3.52E−02 mGy/MBq
Dose estimate, Spleen [3]: 4.42E−02 mGy/MBq
Dose estimate, Stomach wall [3]: 1.95E−02 mGy/MBq
Dose estimate, Testes [3]: 8.14E−03 mGy/MBq
Dose estimate, Thymus [3]: 6.17E−03 mGy/MBq
Dose estimate, Thyroid [3]: 5.72E−03 mGy/MBq
Dose estimate, Total body [3]: 9.41E−03 mGy/MBq
Dose estimate, ULI wall [3]: 1.57E−02 mGy/MBq
Dose estimate, Urinary bladder wall [3]: 3.42E−01 mGy/MBq
Dose estimate, Uterus [3]: 1.57E−02 mGy/MBq
effective dose (ICRP 60) [3]: 3.00E−02 mSv/MBq
